Biological target: T1, eL8, ribosomal protein of the Pf60S subunit (P. falciparum (3D7 strain), UniProt Q8ILL2 1-283)
T1 construct: eL8 of the P. falciparum 3D7 cytoplasmic ribosome; total number of residues 283; built residues 40-46, 54-131, 147-283; extensions compared to human 11-24 and 279-283; Native protein as part of the whole 80S ribosome; also called Q8ILL2_PLAF7; PF3D7_1424400; source: endogenous, in Pf80S ribosomes purified from P. falciparum 3D7 parasites (sucrose cushion, 10-40% sucrose gradient)
T1 sequence (looked up): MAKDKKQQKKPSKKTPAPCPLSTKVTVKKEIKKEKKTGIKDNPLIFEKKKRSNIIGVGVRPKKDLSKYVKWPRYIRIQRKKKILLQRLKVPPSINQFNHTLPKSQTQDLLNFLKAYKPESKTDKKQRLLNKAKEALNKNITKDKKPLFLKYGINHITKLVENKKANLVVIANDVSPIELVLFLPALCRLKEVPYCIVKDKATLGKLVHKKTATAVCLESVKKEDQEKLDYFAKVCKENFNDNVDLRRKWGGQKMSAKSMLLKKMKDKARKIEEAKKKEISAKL
Assay: cryo-EM structure; native Pf80S ribosome purified from parasites, 160 nM, incubated with 1 mM emetine for 15 min at 25°C in 20 mM Hepes pH 7.4, 40 mM KCH3COO, 10 mM NH4CH3COO, 10 mM Mg(CH3COO)2, 5 mM 2-mercaptoethanol; 3.2 Å overall; the two proteins are members of the co-purified ribosome
Conditions: both partners purified

B1: eS1, ribosomal protein of the Pf40S subunit (natural protein, P. falciparum (3D7 strain), UniProt O97313 1-262, looked up)
chain: MAVGKNKRTSKGKKGGKKKVTDVFTKKEWYDLKAPKMFLVRNFGKTLVTKTIGKKLATDSLKGRIYEVNLADLNNDEDQAHKKIKLSCDHIINRDCYTDFCGLSITRDKLCSLIRKGYTLIEGHTDVKTLDNYHLRMFCIAFTKKRQNQTKSTCYAQTSQIKKIRKKMVDIMTAEASKVLLKDLVKKFIPESIGKEIEKQCKKIYPLQNVLIRKVKILKRPKLDISKLMELHTDPKEESGKNVNALPESKEATNILTAELKH
notes: eS1 of the P. falciparum 3D7 cytoplasmic ribosome; total number of residues 262; built residues 24-233; extension compared to human 245-262; Native protein as part of the whole 80S ribosome; also called PF3D7_0322900; source: endogenous, in Pf80S ribosomes purified from P. falciparum 3D7 parasites (sucrose cushion, 10-40% sucrose gradient)
B1: binds.
